This is an account of results in US11618913B2, “Method for preparing xyloglucan-oligosaccharides” (TECHNISCHE UNIVERSITÄT MÜNCHEN, priority 2017, dated 2023).

What all share (assay type): biochemical
A short description of series [1]: Hydrolysis of 20% (wt/vol) TKP/dTKP, XGOS release by HPAEC-PAD. The note with it: 20% (wt/vol) dTKP/TKP, 60° C. The method, then: For XGOS release 20% (wt/vol) 8 g of TKP or dTKP was dissolved in 40 ml demineralized water at 60° C. The enzyme was added at the desired concentrations, 3%, 0.65%, 0.05%, 0.03% or 0.006% (wt/wt TKP) referred to the substrate load. Incubation of the reaction mixture was carried out on a rotary shaker at 125 rpm and 60° C. The hydrolysis process was monitored by taking samples at different time points. The samples were centrifuged and the supernatant boiled for 5 min at 95° C. to denature residual proteins. For analysis, samples of the supernatant were withdrawn, tenfold diluted with double deionized water and measured by HPAEC-PAD.
For the analysis by HPAEC-PAD an ICS 3000 Dionex chromatography system from Thermo Fisher Scientific (Waltham, USA) equipped with a CarboPac™ PA1 column (4×250 mm) and a PA1-precolumn (4×50 mm) was used. The system was set up using PEEK tubing (0.25 mm i.d.), a GM-4 gradient mixer (2 mm), an ED amperometry cell with 0.25 microL channel volume, a pH-Ag/AgCl reference electrode, 0.002″ gasket and disposable gold electrodes. Runs were performed at a column temperature of 30° C. with an injection volume of 25 microL and a flow rate of 1 mL/min. […]
Quantification was performed using a XGOS standard mixture from Megazyme with 0.4 g/L, 0.2 g/L, 0.1 g/L, and 0.05 g/L.

The nature of series [2]: Specific enzyme activity, reducing sugars by DNSA assay. The conditions noted are these: dockerin domain deleted. As for the experimental part: Enzyme activity: the release of micromol reducing sugars from arabinoxylan per mg of enzyme was determined with the DNSA assay.
Specific enzyme activity was determined by using a model substrate such as barley-beta-glucan (Megazyme). Endoglucanase activity is defined as the generation of reducing sugars from the model substrate. One unit of enzyme activity is defined as the amount of reducing sugars in micromol generated per mg of enzyme in one minute at 60° C. To define the enzyme profile and temperature and pH optimum the endoglucanases (50 ng/reaction) were incubated for 30 minutes at a temperature range from 50 to 80° C. in presence of 1% (wt/vol) barley-beta-glucan solved in citrate buffer with varying pH (range 4.0-8.0) (solution A: 0.2 M citric acid, 0.1 M NaCl; solution B: 0.4 M Na2HPO4, 0.1 M NaCl). Reducing sugars were measured by 3,5-dinitrosalicylic acid (DNSA) method: 50 microL sample were mixed with 75 microL DNSA-solution (10 g/L DNSA, 200 g/L K^+-Na^+-Tartrate, 10 g/L NaOH, 0.5 g/L Na2SO4, 2 g/L Phenol) in microtiter plates, incubated for 5 minutes at 95° C., cooled on ice and the absorption determined at 540 nm. For calibration, glucose solutions between 0 and 2 mg/mL were used.

Series [3] in a line: Ki determination (end product inhibition) on Azo-Xyloglucan in presence of xyloglucan oligosaccharides. The note with it: inhibition by xyloglucan oligosaccharides; non-competitive inhibition model; substrate 1-20 g/l. As for the experimental part: To evaluate the suitability of SEQ ID NOs 1-4 for TKP hydrolysis, the Ki value of SEQ ID NO 3 was determined. Enzymatic activity was measured on Azo-Xyloglucan (Megazyme) according to the manufacturer's instruction. Substrate concentrations of 1-20 g/I were chosen and enzymatic activity was measured in the presence of increasing concentrations of xyloglucan oligosaccharides. Mode of Inhibition was assessed using a Lineweaver-Burke plot.

“Also recorded” adds a separate entry of the source.

B1: SEQ ID NO 2: wildtype glycoside hydrolase family 5 endoglucanase from Herbivorax saccincola DSM101079 (protein, listed as Herbivorax saccincola)
chain: STAYTGMRDITSLELVNEMRIGWNLGNTLDAIGGETNWGNPKTTKEMIDKVKEMGFNTVRFPVTWGGHVGPAPDYKIDEGWLNRVEEVVNYALSNDMYAIINLHHENSWLVPTYAQEKRSTEQLVKIWEQVATRFKDYGDYLIFETMNEPRVENSPYEWSGGTPENRHVINNFNLAAVNTIRSTGGNNAKRHIMIPAHAASAIDIALNDLVIPNNDDRIIISVHNYSPYFFAMDVNGTASWGSDYDKASLAAELEALYNRFIKNGRAVVIGEFGSINKNNLSDRIRHAEFFAKEARKRGITVIWWDNGYNEGGKAESYALLDRRNLTWYHPEIAEALVRGAGGVPEPTPTPTPEPTPSPGEDILYGDLNGDGIINSIDYNLLNRYILEVIDDLPVENYSKVADLNGDGVINSNDAVLLGRFILEIVDKFPVDK
Regarding B1, the “hydrolysis of TKP to DP7-DP9 after 24 h” value in series [1] (0.03% (wt/wt) enzyme) was “Complete hydrolysis; also recorded: completely”.

B2: SEQ ID NO 4: endoglucanase obtained from SEQ ID NO: 2 by deleting the dockerin domain (protein)
chain: STAYTGMRDITSLELVNEMRIGWNLGNTLDAIGGETNWGNPKTTKEMIDKVKEMGFNTVRFPVTWGGHVGPAPDYKIDEGWLNRVEEVVNYALSNDMYAIINLHHENSWLVPTYAQEKRSTEQLVKIWEQVATRFKDYGDYLIFETMNEPRVENSPYEWSGGTPENRHVINNFNLAAVNTIRSTGGNNAKRHIMIPAHAASAIDIALNDLVIPNNDDRIIISVHNYSPYFFAMDVNGTASWGSDYDKASLAAELEALYNRFIKNGRAVVIGEFGSINKNNLSDRIRHAEFFAKEARKRGITVIWWDNGYNEGGKAESYALLDRRNLTWYHPEIAEALVRGAGGVPEPTPTPTPEPTPSPG
For B2, the “enzyme activity increase in comparison to wildtype SEQ ID NO 2” value in series [2] (SEQ ID NO 2 activity set to 100%) is reported as 7 fold.

B3: SEQ ID NO 3: endoglucanase obtained from SEQ ID NO: 1 by deleting the dockerin domain (protein)
chain: AKITENYQFDSRIRLNSIGFIPNHSKKATIAANCSTFYVVKEDGTIVYTGTATSMFDNDTKETVYIADFSSVNEEGTYYLAVPGVGKSVNFKIAMNVYEDAFKTAMLGMYLLRCGTSVSATYNGIHYSHGPCHTNDAYLDYINGQHTKKDSTKGWHDAGDYNKYVVNAGITVGSMFLAWEHFKDQLEPVALEIPEKNNSIPDFLDELKYEIDWILTMQYPDGSGRVAHKVSTRNFGGFIMPENEHDERFFVPWSSAATADFVAMTAMAARIFRPYDPQYAEKCINAAKVSYEFLKNNPANVFANQSGFSTGEYATVSDADDRLWAAAEMWETLGDEEYLRDFENRAAQFSKKIEADFDWDNVANLGMFTYLLSERPGKNPALVQSIKDSLLSTADSIVRTSQNHGYGRTLGTTYYWGCNGTVVRQTMILQVANKISPNNDYVNAALDAISHVFGRNYYNRSYVTGLGINPPMNPHDRRSGADGIWEPWPGYLVGGGWPGPKDWVDIQDSYQTNEIAINWNAALIYALAGFVNYN
modifications: Recombinat polypeptide
For B3, the “enzyme activity increase in comparison to SEQ ID NO 1” value in series [2] (SEQ ID NO 1 activity set to 100%) amounted to 4 fold. For the same molecule, the Ki in series [3] was 16.8 mM. For the same molecule, the “degree of hydrolysis after 24 h” value in series [1] (0.006% (wt/wt) enzyme) is listed as “over 80%”.
